Data from US20230355711A1.

Target: recombinant SARS-CoV-2 spike protein (S1S2ECD-His; Sino Biological) (SARS-CoV-2) (UniProt P0DTC2)

heat-inactivated recombinant human rod domain of vimentin (ΔrhRod) (from UniProt P08670 96-407)
Kd: 1.1 µM
